Experimental data from CN114057887A.
Where two headings read alike, the source gives them in different places.

Key:
[1] = target: RBD-Fc (义翘神州，40592-V05H) (SARS-CoV-2) (UniProt P0DTC2)
[2] = target: RBD-Fc (义翘神州，40592-V05H) (SARS-CoV-2) (UniProt P0DTC2); remark: listed apart in the source

“hACE2-Fc融合蛋白 (人ACE2胞外区(ECD)与人IgG1的Fc片段的融合蛋白) (Fc fusion)” showed an IC50 [1] of 7.6 nM and an IC50 [2] of 5.02 nM.
